The values that follow come from article PMC8059062 (The Journal of Biological Chemistry, 2021).

Ends that are not written are not given here.

Assay [1] deals with T1, full-length FGF12A (aa 1-243) (human, UniProt P61328-1 1-243).
T1 construct: four nonnative residues left at the N terminus after removal of the His-GST tag with 3C protease; human FGF12A (A-type splice variant of FGF12), full-length, aa 1-243; Obtained only as the FGF12A+NaV1.2CTD complex; not shown: His-GST, N-terminal, cleaved
T1 sequence: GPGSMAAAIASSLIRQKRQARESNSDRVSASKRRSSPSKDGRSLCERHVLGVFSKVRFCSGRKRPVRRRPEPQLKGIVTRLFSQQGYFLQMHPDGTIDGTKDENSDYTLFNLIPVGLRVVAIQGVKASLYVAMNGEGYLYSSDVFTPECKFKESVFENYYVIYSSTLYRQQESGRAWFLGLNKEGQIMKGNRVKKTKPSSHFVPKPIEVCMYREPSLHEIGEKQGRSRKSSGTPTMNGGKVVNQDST
In words: co-purification after refolding; denatured His-GST-FGF12A refolded by rapid dilution at 4 C into buffer with CaM+NaV1.2CTD (0.2 uM); tag cleaved, nickel resin repass, anion exchange (pH 8.5-7.4, KCl 0-300 mM) removes CaM. To be noted: both partners purified.

Assay [2] concerns the target T2, calmodulin, wild type, full-length (aa 1-148) (human, UniProt P0DP23 1-149).
T2 construct: human calmodulin, full-length, aa 1-148; numbers count on: the protein without the initial Met (UniProt numbers are one higher); Ca2+-saturated ((Ca2+)4-CaM) and Ca2+-depleted (apo) states are the same molecule; the state is told by the assay; 15N-labelled in some NMR samples; also called CaM; WT CaM; source: bacterially overexpressed (pT7-7 vector) and purified; also bacterially coexpressed with …
In words: other fluorescence titration; YFP-CFP FRET biosensor (>=1 nM) with Ca2+-saturated WT or mutant CaM, emission spectra and equilibrium titrations; 50 mM HEPES, 100 mM KCl, 1 mM MgCl2, 50 uM EGTA, 5 mM NTA, 1.5 uM BSA, 500 uM DTT, 1 mM CaCl2, pH 7.4, 22 C.

Assay [3] addresses T2, calmodulin, wild type, full-length (aa …). In words: NMR 15N-HSQC chemical shift comparison; copurified 1:1 complexes, one partner 15N-labelled (290-600 uM), compared with isolated (Ca2+)2-CaMN and (Ca2+)2-CaMC and with each other; 50 mM HEPES, 100 mM KCl, 1 mM MgCl2, 50 uM EGTA, 5 mM NTA, 10 mM CaCl2, pH 7.4, 25 C. To be noted: both partners purified.
For assay [4] the target is unchanged. In words: not stated; (Ca2+)4-CaM binding to NaV IQ motifs; data not shown.

B1: NaV1.2CTD (fragment of the NaV1.2 C-terminal domain, residues 1777-1937, with EFL and IQ motif) (domain or fragment, human)
chain: GPGSENFSVATEESAEPLSEDDFEMFYEVWEKFDPDATQFIEFAKLSDFADALDPPLLIAKPNKVQLIAMDLPMVSGDRIHCLDILFAFTKRVLGESGEMDALRIQMEERFMASNPSKVSYEPITTTLKRKQEEVSAIIIQRAYRRYLLKQKVKKVSSIYKKDKG
notes: four nonnative residues left at the N terminus after removal of the His-GST tag with 3C protease; human NaV1.2 (SCN2A) C-terminal domain fragment, aa 1777-1937, contains the EF-hand like domain and the IQ motif; source: bacterial coexpression with CaM, copurified; not shown: His-GST, N-terminal, cleaved
With B1, in assay [1], the binding result was “binds”. What is called Kd is the free concentration of one partner at which half of the binding sites on the other are occupied at equilibrium, for simple one-to-one binding. Higher therefore signals lower affinity. Regarding KSLCQKQLLILLSKVRLCGGRPARPDR (domain or fragment, cysteine pairing not given here; also: fused between YFP and CFP, source: expressed from a pET21B vector) [FGF11A_(CaMBD) biosensor (FGF11A CaMBD, residues 36-62, between YFP and CFP)], the Kd in assay [2] is 19 nM. Still for that read-out and setting: the result for MAAAIASSLIRQKRQARESNSDR (domain or fragment, source: expressed from a pET21B vector) [FGF12ALTP biosensor (FGF12A LTP, residues 1-23, between YFP and CFP)] reads 576 nM; that for KTSCDKNKLNVFSRVKLFGSKKRRRR (domain or fragment, also: fused between YFP and CFP, source: expressed from a pET21B vector) [FGF13A_(CaMBD) biosensor (FGF13A CaMBD, residues 35-60, between YFP and CFP)], 13 nM.

B2: FGF12ANTD (FGF12A N-terminal domain, aa 1-70) (domain or fragment)
chain: GPGSMAAAIASSLIRQKRQARESNSDRVSASKRRSSPSKDGRSLCERHVLGVFSKVRFCSGRKRPVRRRPEPQL
notes: four nonnative residues left at the N terminus after removal of the His-GST tag with 3C protease; human FGF12A N-terminal domain, aa 1-70, contains LTP and CaMBD; 15N-labelled in some NMR samples; source: bacterial coexpression with CaM, copurified; not shown: His-GST, N-terminal, cleaved
As for B2, in assay [3], the binding result is “binds”.

B3: NaV1.2 IQ motif (domain or fragment)
chain: EEVSAIIIQRAYRRYLLKQKVKKVSSIYKK
notes: IQ motif of NaV1.2; also called IQ motif of NaV1.2
Molecule B3 registered a Kd in assay [4] of 19.8 nM. On to RSLCERHVLGVFSKVRFCSGRKRPVRR (domain or fragment, cysteine pairing not given here; also: fused between YFP and CFP, source: expressed from a pET21B vector) [FGF12A_(CaMBD) biosensor (FGF12A CaMBD, residues 38-64, between YFP and CFP)], for which binding in assay [2] was put at a Kd of 107 nM.
